# Reference: patent publication US6872537B1, “Assays for the detection of microtubule depolymerization inhibitors” (Regents of the University of California, priority 1998, dated 2005)
# B1: Katanin: microtubule-severing heterodimer of 60 kDa and 80 kDa subunits; values match recombinant p60/p80 (protein)
# chain 1: HHHHHHMSVDEICENTKMGREYALLGNYETSLVYYQGVLQQIQKLLTSVHEPQRKHQWQTIRQELSQEYEHVKNITKTLNGFKSEPAAPEPAPNHGRAAPFSHHQHAAKPAAAEPARDPDVWPPPTPVDHRPSPPYQRAARKDPPRRSEPSKPANRAPGNDRGGRGPSDRRGDARSGGGGRGGARGSDKDKNRGGKSDKDKKAPSGEEGDEKKFDPAGYDKDLVENLERDIVQRNPNVHWADIAGLTEAKRLLEEAVVLPLWMPDYFKGIRRPWKGVLMVGPPGTGKTMLAKAVATECGTTFFNVSSASLTSKYHGESEKLVRLLFEMARFYAPSTIFIDEIDSICSKRGTGSEHEASRRVKSELLIQMDGVSGPSAGEESSKMVMVLAATNFPWDIDEALRRRLEKRIYIPLPEIDGREQLLRINLKEVPLADDIDLKSIAEKMDGYSGADITNVCRDASMMAMRRRIQGLRPEEIRHIPKEELNQPSTPADFLLALQKVSKSVGKEDLVKYMAWMEEFGSV
# chain 2: HHHHHHMATKRAWKLQELVAHSSNVNCLALGPMSGRVMVTGGEDKKVNLWAVGKQNCIISLSGHTSPVDSVKFNSSEELVVAGSQSGTMKIYDLEPAKIVRTLTGHRNSIRCMDFHPFGEFVASGSTDTNVKLWDVRRKGCIYTYKGHSDQVNMIKFSPDGKWLVTASEDTTIKLWDLTMGKLFQEFKNHTGGVTGIEFHPNEFLLASGSSDRTVQFWDLETFQLVSSTSPGASAVRSISFHPDGSYLFCSSQDMLHAFGWEPIRCFDTFSVFWGKVADTVIASTQLIGASFNATNVSVYVADLSRMSTTGIAQEPQSQPSKTPSGGAEEVPSKPLTASGRKNFVRERPHTTSSKQRQPDVKSEPERQSPTQDEGVKDDDATDIKDPDSYAKIFSPKTRVDHSPERNAQPFPAPLDVPGAQEPEPFKHPPKPAAAAAVAPVSRAPAPSASDWQPAQANPAPNRVPAATKPVPAQEVAPSRKPDPISTIIPSDRNKPANLDMDAFLPPAHAQQAPRVNAPASRKQSDSERIEGLRKGHDSMCQVLSSRHRNLDVVRAIWTAGDAKTSVESVVNMKDQAILVDILNIMLLKKSLWNLDMCVVVLPRLKELLSSKYENYVHTSCACLKLILKNFTSLFNQNIKCPPSGIDITREERYNKCSKCYSYLIATRGYVEEKQHVSGKLGSSFRELHLLLDQLE
# B2: p60: baculovirus-expressed His-tagged S. purpuratus katanin p60 subunit (SEQ ID NO:1), AAA ATPase (protein, listed as Strongylocentrotus purpuratus)
# chain: MSVDEICENTKMGREYALLGNYETSLVYYQGVLQQIQKLLTSVHEPQRKHQWQTIRQELSQEYEHVKNITKTLNGFKSEPAAPEPAPNHGRAAPFSHHQHAAKPAAAEPARDPDVWPPPTPVDHRPSPPYQRAARKDPPRRSEPSKPANRAPGNDRGGRGPSDRRGDARSGGGGRGGARGSDKDKNRGGKSDKDKKAPSGEEGDEKKFDPAGYDKDLVENLERDIVQRNPNVHWADIAGLTEAKRLLEEAVVLPLWMPDYFKGIRRPWKGVLMVGPPGTGKTMLAKAVATECGTTFFNVSSASLTSKYHGESEKLVRLLFEMARFYAPSTIFIDEIDSICSKRGTGSEHEASRRVKSELLIQMDGVSGPSAGEESSKMVMVLAATNFPWDIDEALRRRLEKRIYIPLPEIDGREQLLRINLKEVPLADDIDLKSIAEKMDGYSGADITNVCRDASMMAMRRRIQGLRPEEIRHIPKEELNQPSTPADFLLALQKVSKSVGKEDLVKYMAWMEEFGSV
# modifications: His tag; katanin p60 subunit
# B3: p80: baculovirus-expressed His-tagged S. purpuratus katanin p80 subunit (SEQ ID NO:2), contains WD40 repeats (protein, listed as Strongylocentrotus purpuratus)
# chain: MATKRAWKLQELVAHSSNVNCLALGPMSGRVMVTGGEDKKVNLWAVGKQNCIISLSGHTSPVDSVKFNSSEELVVAGSQSGTMKIYDLEPAKIVRTLTGHRNSIRCMDFHPFGEFVASGSTDTNVKLWDVRRKGCIYTYKGHSDQVNMIKFSPDGKWLVTASEDTTIKLWDLTMGKLFQEFKNHTGGVTGIEFHPNEFLLASGSSDRTVQFWDLETFQLVSSTSPGASAVRSISFHPDGSYLFCSSQDMLHAFGWEPIRCFDTFSVFWGKVADTVIASTQLIGASFNATNVSVYVADLSRMSTTGIAQEPQSQPSKTPSGGAEEVPSKPLTASGRKNFVRERPHTTSSKQRQPDVKSEPERQSPTQDEGVKDDDATDIKDPDSYAKIFSPKTRVDHSPERNAQPFPAPLDVPGAQEPEPFKHPPKPAAAAAVAPVSRAPAPSASDWQPAQANPAPNRVPAATKPVPAQEVAPSRKPDPISTIIPSDRNKPANLDMDAFLPPAHAQQAPRVNAPASRKQSDSERIEGLRKGHDSMCQVLSSRHRNLDVVRAIWTAGDAKTSVESVVNMKDQAILVDILNIMLLKKSLWNLDMCVVVLPRLKELLSSKYENYVHTSCACLKLILKNFTSLFNQNIKCPPSGIDITREERYNKCSKCYSYLIATRGYVEEKQHVSGKLGSSFRELHLLLDQLE
# modifications: His tag; katanin p80 subunit
# B4: NSF: recombinant NSF, AAA ATPase cited for comparison (protein, UniProt P46459 1-744, looked up)
# Vesicle-fusing ATPase: MAGRSMQAARCPTDELSLTNCAVVNEKDFQSGQHVIVRTSPNHRYTFTLKTHPSVVPGSIAFSLPQRKWAGLSIGQEIEVSLYTFDKAKQCIGTMTIEIDFLQKKSIDSNPYDTDKMAAEFIQQFNNQAFSVGQQLVFSFNEKLFGLLVKDIEAMDPSILKGEPATGKRQKIEVGLVVGNSQVAFEKAENSSLNLIGKAKTKENRQSIINPDWNFEKMGIGGLDKEFSDIFRRAFASRVFPPEIVEQMGCKHVKGILLYGPPGCGKTLLARQIGKMLNAREPKVVNGPEILNKYVGESEANIRKLFADAEEEQRRLGANSGLHIIIFDEIDAICKQRGSMAGSTGVHDTVVNQLLSKIDGVEQLNNILVIGMTNRPDLIDEALLRPGRLEVKMEIGLPDEKGRLQILHIHTARMRGHQLLSADVDIKELAVETKNFSGAELEGLVRAAQSTAMNRHIKASTKVEVDMEKAESLQVTRGDFLASLENDIKPAFGTNQEDYASYIMNGIIKWGDPVTRVLDDGELLVQQTKNSDRTPLVSVLLEGPPHSGKTALAAKIAEESNFPFIKICSPDKMIGFSETAKCQAMKKIFDDAYKSQLSCVVVDDIERLLDYVPIGPRFSNLVLQALLVLLKKAPPQGRKLLIIGTTSRKDVLQEMEMLNAFSTTIHVPNIATGEQLLEALELLGNFKDKERTTIAQQVKGKKVWIGIKKLLMLIEMSLQMDPEYRVRKFLALLREEGASPLDFD
# Legend:
# [1] = ATPase assay (modified malachite green method); type: biochemical, Strongylocentrotus purpuratus
# Procedure: ATPase activity was measured by a modified malachite green method (Kodama et al. (1986) J. Biochem. 99: 1465-1472). ATPase reactions of 50-100 μl, were carried out in a buffer previously used for measuring the ATPase activity of native katanin [20 mM K-HEPES pH 8.0, 25 mM potassium glutamate 2 mM MgCl2, 10% glycerol (v/v), 0.02% Triton X-100 (w/v), 1 mg/ml BSA] (McNally and Vale (1993) Cell, 75: 419-429), except that soybean trypsin inhibitor (SBTI) was replaced by BSA as a carrier protein because SBTI increased background phosphate contamination. An ATP regenerating system, consisting of 0.5-1.0 mM phosphoenol pyruvate and 2 units of pyruvate kinase, was included to minimize the inhibition by ADP observed previously for native katanin (McNally and Vale (1993) Cell, 75: 419-429). Microtubules were prepared from bovine brain tubulin (Hyman et al. (1990) Meth. Enzymol. 196: 303-319; and Williams and Lee (1982) Meth Enzymol. 85B: 376-385). After assembly, microtubules were sedimented (230,000×g; 10 min), resuspended in ATPase buffer lacking BSA, and the polymers were resuspended by repeated passage through a 27 gauge needle. Microtubule concentration was determined by measuring the absorbance at 275 nm in 6 M guanidine HCl by using a molecular mass of 110 kDa and an extinction coefficient of 1.03 ml mg^−1 cm^−1 (Hackney (1988) Proc. Natl. Acad. Sci. USA, 85: 6314-6318). ATPase reactions were carried out at room temperature, and were initiated by addition of katanin.
# microtubules = assay: DAPI fluorescence microtubule disassembly (severing) assay; type: biochemical, bovine; conditions: 2 μM microtubules, 0.2 μM protein
# Procedure: ATPase activity was measured by a modified malachite green method (Kodama et al. (1986) J. Biochem. 99: 1465-1472). ATPase reactions of 50-100 μl, were carried out in a buffer previously used for measuring the ATPase activity of native katanin [20 mM K-HEPES pH 8.0, 25 mM potassium glutamate 2 mM MgCl2, 10% glycerol (v/v), 0.02% Triton X-100 (w/v), 1 mg/ml BSA] (McNally and Vale (1993) Cell, 75: 419-429), except that soybean trypsin inhibitor (SBTI) was replaced by BSA as a carrier protein because SBTI increased background phosphate contamination. […] Microtubule concentration was determined by measuring the absorbance at 275 nm in 6 M guanidine HCl by using a molecular mass of 110 kDa and an extinction coefficient of 1.03 ml mg^−1 cm^−1 (Hackney (1988) Proc. Natl. Acad. Sci. USA, 85: 6314-6318). […]
# DAPI severing assays were performed using conditions where the change in fluorescence intensity was linear with the amount of tubulin polymer added (Heusele et al. (1987) Eur. J. Biochem. 165: 613-620). […] The reaction volume was 80 μL, and fluorescence intensity was measured by exciting at 370 nm, and measuring the emission at 450 nm using a model 8100 fluorimeter (SLM Instruments) in photon counting mode.
# [2] = test system: Taxol-stabilized, rhodamine-labeled microtubules; assay: Microscope-based microtubule severing assay; type: biochemical
# Procedure: Microscope-based severing assays were performed using previously published procedures (McNally and Vale (1993) Cell, 75: 419-429), except that microtubules were immobilized by first perfusing flow cells with a bacterially expressed kinesin mutant that binds strongly to microtubules but is unable to hydrolyze ATP (K560, G234A mutant; R. Vale and E. Taylor, unpublished results). Assays were performed in 20 mM Hepes (pH 7.5), 2 mM MgCl2, 1 mM ATP with an oxygen scavenger system consisting of glucose oxidase (220 μg/ml), catalase (36 μg/ml), glucose (22.5 mM), and 2-mercaptoethanol (71.5 mM). Images were captured using a cooled, slow-scan CCD (Photometerics) and processed using Adobe Photoshop.
# [3] = literature values for comparison; cited from earlier work
molecule,measurement,setting,value
B1,basal ATPase activity,[1],0.3 ATP/katanin/sec
same,maximal microtubule-stimulated ATPase rate,[1],3 ATP/katanin/sec
B2,"rate of microtubule disassembly, DAPI fluorescence decrease (in words)",microtubules,half as active as p60/p80
same,microtubule concentration at peak ATP turnover stimulation,[1]; decreases at higher microtubule concentrations,~2 μM tubulin
same,time until microtubules were completely disassembled,"[2]; 0.1 μM protein, 1 mM ATP",5 min
B3,"rate of microtubule disassembly, DAPI fluorescence decrease (in words)",microtubules,did not cause a change in fluorescence
same,ATPase activity (in words),[1],no detectable ATPase activity
same,microtubule severing (in words),[2]; concentrations 5-fold higher than those used for p60 (0.5 μM),unable to sever microtubules
B4,ATPase activity of other AAA family members,[3],0.08 ATP/sec
